Measurements from article doi:10.1101/824060 (bioRxiv, 2019).

Assays:
[1] = molecular target: T1, Gid1 (endogenous, in native GID^Ant) (S. cerevisiae (endogenous in strain …, UniProt P53076 1-958)); assay: cryo-EM structure
T1 sequence: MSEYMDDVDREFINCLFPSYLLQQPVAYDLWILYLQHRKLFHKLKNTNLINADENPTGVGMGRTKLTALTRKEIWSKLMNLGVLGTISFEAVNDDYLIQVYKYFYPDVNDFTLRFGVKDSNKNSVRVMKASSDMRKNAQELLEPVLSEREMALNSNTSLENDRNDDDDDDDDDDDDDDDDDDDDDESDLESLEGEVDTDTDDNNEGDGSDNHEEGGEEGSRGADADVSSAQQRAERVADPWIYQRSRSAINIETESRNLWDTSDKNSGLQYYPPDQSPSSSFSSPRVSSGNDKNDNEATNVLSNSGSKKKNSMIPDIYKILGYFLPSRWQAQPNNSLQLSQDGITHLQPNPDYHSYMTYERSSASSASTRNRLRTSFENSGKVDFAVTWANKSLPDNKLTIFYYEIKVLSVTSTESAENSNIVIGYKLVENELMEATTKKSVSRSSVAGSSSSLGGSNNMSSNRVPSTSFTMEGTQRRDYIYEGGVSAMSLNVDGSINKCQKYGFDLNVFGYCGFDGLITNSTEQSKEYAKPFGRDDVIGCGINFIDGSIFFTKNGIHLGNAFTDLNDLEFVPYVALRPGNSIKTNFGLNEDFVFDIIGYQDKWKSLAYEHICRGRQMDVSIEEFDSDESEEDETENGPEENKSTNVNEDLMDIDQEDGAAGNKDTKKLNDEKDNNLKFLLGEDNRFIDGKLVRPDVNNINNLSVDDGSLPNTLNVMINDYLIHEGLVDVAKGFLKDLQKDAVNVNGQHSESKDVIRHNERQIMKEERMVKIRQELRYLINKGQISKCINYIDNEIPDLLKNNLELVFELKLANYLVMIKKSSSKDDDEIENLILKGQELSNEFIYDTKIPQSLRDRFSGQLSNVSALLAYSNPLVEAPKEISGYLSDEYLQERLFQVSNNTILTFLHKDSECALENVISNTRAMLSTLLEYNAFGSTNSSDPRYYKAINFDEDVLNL

[2] = molecular target: T2, Gid9 (endogenous, in native GID^Ant) (S. cerevisiae (endogenous in strain …, UniProt P40492 1-516)); assay: cryo-EM structure
T2 sequence: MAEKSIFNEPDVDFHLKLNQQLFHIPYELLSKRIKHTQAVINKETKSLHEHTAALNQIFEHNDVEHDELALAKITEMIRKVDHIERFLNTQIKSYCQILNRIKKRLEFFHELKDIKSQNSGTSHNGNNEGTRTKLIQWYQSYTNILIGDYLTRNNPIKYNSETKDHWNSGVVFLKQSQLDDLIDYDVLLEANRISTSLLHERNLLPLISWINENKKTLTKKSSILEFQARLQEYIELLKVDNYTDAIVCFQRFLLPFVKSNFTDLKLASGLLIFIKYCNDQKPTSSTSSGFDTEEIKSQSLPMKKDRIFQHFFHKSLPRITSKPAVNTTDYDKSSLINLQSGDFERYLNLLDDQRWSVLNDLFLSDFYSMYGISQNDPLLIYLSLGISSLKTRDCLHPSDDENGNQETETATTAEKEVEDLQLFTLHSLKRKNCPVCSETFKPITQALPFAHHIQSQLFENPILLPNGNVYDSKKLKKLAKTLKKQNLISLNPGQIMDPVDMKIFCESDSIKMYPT

Gid9 = molecular target: T3, Gid9 (S. cerevisiae, UniProt P40492 1-516); assay: […]
T3 sequence: T2 sequence

Gid1 = molecular target: T4, Gid1 (S. cerevisiae, UniProt P53076 1-958); assay: […]
T4 sequence: T1 sequence

B1: Gid8 with 3X Flag tag at the C-terminus (endogenous, strain CRLY45) (natural protein)
chain: MTISTLSNETTKSGSCSGQGKNGGKDFTYGKKCFTKEEWKEQVAKYSAMGELYANKTIHYPLKIQPNSSGGSQDEGFATIQTTPIEPTLPRLLLNYFVSMAYEDSSIRMAKELGFIRNNKDIAVFNDLYKIKERFHIKHLIKLGRINEAMEEINSIFGLEVLEETFNATGSYTGRTDRQQQQQQQQFDIDGDLHFKLLLLNLIEMIRSHHQQENITKDSNDFILNLIQYSQNKLAIKASSSVKKMQELELAMTLLLFPLSDSADSGSIKLPKSLQNLYSISLRSKIADLVNEKLLKFIHPRIQFEISNNNSKFPDLLNSDKKIITQNFTVYNNNLVNGSNGTKITHISSDQPINEKMSSNEVTAAANSVWLNQRDGNVGTGSAATTFHNLENKNYWNQTSELLSSSNGKEKGLEFNNYYSSEFPYEPRLTQIMKLWCWCENQLHHNQIGVPRVEN
- binding result [1]: binds
- binding result [2]: binds

B2: Gid8 (natural protein)
chain: B1 chain
- binding result (Gid9): binds
- binding result (Gid1): binds

B3: Gid2 (natural protein)
chain: MSELLDSFETEFAKFYTDSNLEETNLQKCLDHTHEFKSQLKKLKAHLNKHIQESKPEVYNKLSDKEKQKFKRKRELIIEKLSKSQRQWDHSVKKQIKYVSQQSNRFNKSTLNKLKEFDIDSVYVNKLPKETMENVNEAIGYHILRYSIDNMPLGNKNEAFQYLKDVYGITNKESTEFIEMGQIVHDLKKGDTESCLKWCSNEMESLSSNHTALSSLKFDLYTLSAMQIVKHGNPVELYYQITQNAPLDCFRHREKELMQNVVPLLTKSLIGQPIEDIDSKVNKELKECTSLFIKEYCAAKHIFFDSPLFLIVLSGLISFQFFIKYKTIRELAHVDWTTKDELPFDVKLPDFLTHFHPIFICPVLKEETTTENPPYSLACHHIISKKALDRLSKNGTITFKCPYCPVNTSMSSTKKVRFVML
- binding result (Gid9): binds
